Source: article PMC10786891, “Massively parallel profiling of RNA-targeting CRISPR-Cas13d”

T1: EsCas13d, nuclease-dead (Eubacterium siraeum, UniProt B0MS50, R295A;H300A;R849A;H854A)
T1 sequence: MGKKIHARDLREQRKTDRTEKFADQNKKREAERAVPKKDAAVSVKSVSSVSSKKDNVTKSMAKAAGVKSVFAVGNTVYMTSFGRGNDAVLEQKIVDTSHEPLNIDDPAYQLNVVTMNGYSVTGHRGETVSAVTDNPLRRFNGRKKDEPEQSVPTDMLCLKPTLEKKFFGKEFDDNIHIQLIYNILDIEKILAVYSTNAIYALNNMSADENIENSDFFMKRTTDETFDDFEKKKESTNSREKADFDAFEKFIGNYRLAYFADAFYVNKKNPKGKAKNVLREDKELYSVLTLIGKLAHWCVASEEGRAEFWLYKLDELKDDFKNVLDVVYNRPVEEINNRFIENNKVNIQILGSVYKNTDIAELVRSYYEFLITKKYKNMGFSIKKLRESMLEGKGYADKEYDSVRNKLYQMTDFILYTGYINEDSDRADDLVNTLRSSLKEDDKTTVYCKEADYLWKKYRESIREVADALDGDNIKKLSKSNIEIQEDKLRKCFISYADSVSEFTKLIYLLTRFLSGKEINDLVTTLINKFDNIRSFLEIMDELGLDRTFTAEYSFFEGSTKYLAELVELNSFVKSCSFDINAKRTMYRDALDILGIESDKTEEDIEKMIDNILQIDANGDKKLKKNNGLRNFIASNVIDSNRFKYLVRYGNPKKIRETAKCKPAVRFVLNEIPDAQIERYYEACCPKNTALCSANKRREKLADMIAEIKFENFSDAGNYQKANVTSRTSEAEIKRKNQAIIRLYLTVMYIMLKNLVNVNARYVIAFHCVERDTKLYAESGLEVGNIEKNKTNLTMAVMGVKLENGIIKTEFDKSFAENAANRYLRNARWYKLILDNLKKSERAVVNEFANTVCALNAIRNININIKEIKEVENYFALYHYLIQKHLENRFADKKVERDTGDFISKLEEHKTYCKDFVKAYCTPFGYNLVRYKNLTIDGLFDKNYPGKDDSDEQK


Molecular target: T1, EsCas13d, nuclease-dead
Assay: crRNA (strand 1, pre-loaded); Mg2+; 40 mM Tris-HCl pH 7.5, 150 mM NaCl, 6 mM MgCl2, 1 mM DTT, 0.1% Tween-20, 0.2 mg/ml BSA; 25 C; 10 min per concentration, then washed
Settings: tags: His6-TwinStrep-SUMO cleaved; N-terminal SNAP kept (SNAP-Surface 488); label: 3' end held by stalled T7 RNA polymerase

Binder | Kd
target 1 MT 5'PFS GUA 3'PFS GUU (mixed) RNA 1: CACCCGUGCAAAAAUGCAGGGGUCUAAAACUGAGCGGAUAACCUCUCUAUGG RNA 2: GGGAAUGGAUCCACAUCUACGAAUUCGUACCAUAGAGAGGUUAUCCGCUCAGUUAGAUCGGAAGAGCACACGU | 11.4 ± 1.05 nM
target 1 MT 5'PFS GUA 3'PFS GUG (mixed) RNA 1: CACCCGUGCAAAAAUGCAGGGGUCUAAAACUGAGCGGAUAACCUCUCUAUGG RNA 2: GGGAAUGGAUCCACAUCUACGAAUUCGUACCAUAGAGAGGUUAUCCGCUCAGUGAGAUCGGAAGAGCACACGU | 8.5 ± 0.95 nM
target 1 MT 5'PFS GUA 3'PFS GUC (mixed) RNA 1: CACCCGUGCAAAAAUGCAGGGGUCUAAAACUGAGCGGAUAACCUCUCUAUGG RNA 2: GGGAAUGGAUCCACAUCUACGAAUUCGUACCAUAGAGAGGUUAUCCGCUCAGUCAGAUCGGAAGAGCACACGU | 9.35 ± 1 nM
target 1 insG 3' of 11,insC 3' of 5 (mixed) RNA 1: CACCCGUGCAAAAAUGCAGGGGUCUAAAACUGAGCGGAUAACCUCUCUAUGG RNA 2: GGGAAUGGAUCCACAUCUACGAAUUCGUACCAUAGAGAGGUGUAUCCGCCUCACCGAGAUCGGAAGAGCACACGU | 78 ± 21 nM
target 1 MT 5'PFS AAC 3'PFS AUU (mixed) RNA 1: CACCCGUGCAAAAAUGCAGGGGUCUAAAACUGAGCGGAUAACCUCUCUAUGG RNA 2: GGGAAUGGAUCCACAUCUACGAAUUCAACCCAUAGAGAGGUUAUCCGCUCAAUUAGAUCGGAAGAGCACACGU | ~21 nM
target 1 MT 5'PFS GCG 3'PFS CGG (mixed) RNA 1: CACCCGUGCAAAAAUGCAGGGGUCUAAAACUGAGCGGAUAACCUCUCUAUGG RNA 2: GGGAAUGGAUCCACAUCUACGAAUUCGCGCCAUAGAGAGGUUAUCCGCUCACGGAGAUCGGAAGAGCACACGU | 67.5 ± 27.5 nM
target 1 MT 5'PFS GCG 3'PFS CGC (mixed) RNA 1: CACCCGUGCAAAAAUGCAGGGGUCUAAAACUGAGCGGAUAACCUCUCUAUGG RNA 2: GGGAAUGGAUCCACAUCUACGAAUUCGCGCCAUAGAGAGGUUAUCCGCUCACGCAGAUCGGAAGAGCACACGU | ~80 nM
target 1 MT 5'PFS GCG 3'PFS CGA (mixed) RNA 1: CACCCGUGCAAAAAUGCAGGGGUCUAAAACUGAGCGGAUAACCUCUCUAUGG RNA 2: GGGAAUGGAUCCACAUCUACGAAUUCGCGCCAUAGAGAGGUUAUCCGCUCACGAAGAUCGGAAGAGCACACGU | 49.5 ± 17 nM
target 1 MT 5'PFS GCG 3'PFS CGU (mixed) RNA 1: CACCCGUGCAAAAAUGCAGGGGUCUAAAACUGAGCGGAUAACCUCUCUAUGG RNA 2: GGGAAUGGAUCCACAUCUACGAAUUCGCGCCAUAGAGAGGUUAUCCGCUCACGUAGAUCGGAAGAGCACACGU | ~70 nM
target 1 MT 5'PFS CCC 3'PFS AGC (mixed) RNA 1: CACCCGUGCAAAAAUGCAGGGGUCUAAAACUGAGCGGAUAACCUCUCUAUGG RNA 2: GGGAAUGGAUCCACAUCUACGAAUUCCCCCCAUAGAGAGGUUAUCCGCUCAAGCAGAUCGGAAGAGCACACGU | ~40 nM
target 1 MT 5'PFS GUG 3'PFS UAU (mixed) RNA 1: CACCCGUGCAAAAAUGCAGGGGUCUAAAACUGAGCGGAUAACCUCUCUAUGG RNA 2: GGGAAUGGAUCCACAUCUACGAAUUCGUGCCAUAGAGAGGUUAUCCGCUCAUAUAGAUCGGAAGAGCACACGU | 11.3 ± 0.8 nM
target 1 MT 5'PFS GUG 3'PFS UAA (mixed) RNA 1: CACCCGUGCAAAAAUGCAGGGGUCUAAAACUGAGCGGAUAACCUCUCUAUGG RNA 2: GGGAAUGGAUCCACAUCUACGAAUUCGUGCCAUAGAGAGGUUAUCCGCUCAUAAAGAUCGGAAGAGCACACGU | 14.8 ± 0.95 nM
target 1 MT 5'PFS GUG 3'PFS UAC (mixed) RNA 1: CACCCGUGCAAAAAUGCAGGGGUCUAAAACUGAGCGGAUAACCUCUCUAUGG RNA 2: GGGAAUGGAUCCACAUCUACGAAUUCGUGCCAUAGAGAGGUUAUCCGCUCAUACAGAUCGGAAGAGCACACGU | 19.9 ± 2.05 nM
target 1 MT 5'PFS CAG 3'PFS AAC (mixed) RNA 1: CACCCGUGCAAAAAUGCAGGGGUCUAAAACUGAGCGGAUAACCUCUCUAUGG RNA 2: GGGAAUGGAUCCACAUCUACGAAUUCCAGCCAUAGAGAGGUUAUCCGCUCAAACAGAUCGGAAGAGCACACGU | 75 ± 36.5 nM
target 1 C2G,G5C (mixed) RNA 1: CACCCGUGCAAAAAUGCAGGGGUCUAAAACUGAGCGGAUAACCUCUCUAUGG RNA 2: GGGAAUGGAUCCACAUCUACGAAUUCGUACCAUAGAGAGGUUAUCCCCUGACCGAGAUCGGAAGAGCACACGU | 14 ± 1.1 nM
target 1 C4U,A9G (mixed) RNA 1: CACCCGUGCAAAAAUGCAGGGGUCUAAAACUGAGCGGAUAACCUCUCUAUGG RNA 2: GGGAAUGGAUCCACAUCUACGAAUUCGUACCAUAGAGAGGUUGUCCGUUCACCGAGAUCGGAAGAGCACACGU | 42 ± 8 nM
target 1 C4G,A20U (mixed) RNA 1: CACCCGUGCAAAAAUGCAGGGGUCUAAAACUGAGCGGAUAACCUCUCUAUGG RNA 2: GGGAAUGGAUCCACAUCUACGAAUUCGUACCUUAGAGAGGUUAUCCGGUCACCGAGAUCGGAAGAGCACACGU | 17.5 ± 2 nM
target 1 MT 5'PFS GUG 3'PFS UAG (mixed) RNA 1: CACCCGUGCAAAAAUGCAGGGGUCUAAAACUGAGCGGAUAACCUCUCUAUGG RNA 2: GGGAAUGGAUCCACAUCUACGAAUUCGUGCCAUAGAGAGGUUAUCCGCUCAUAGAGAUCGGAAGAGCACACGU | 16 ± 1.5 nM
target 1 MT 5'PFS UAG 3'PFS CUU (mixed) RNA 1: CACCCGUGCAAAAAUGCAGGGGUCUAAAACUGAGCGGAUAACCUCUCUAUGG RNA 2: GGGAAUGGAUCCACAUCUACGAAUUCUAGCCAUAGAGAGGUUAUCCGCUCACUUAGAUCGGAAGAGCACACGU | 28 ± 5.5 nM
target 1 MT 5'PFS CAG 3'PFS UCU (mixed) RNA 1: CACCCGUGCAAAAAUGCAGGGGUCUAAAACUGAGCGGAUAACCUCUCUAUGG RNA 2: GGGAAUGGAUCCACAUCUACGAAUUCCAGCCAUAGAGAGGUUAUCCGCUCAUCUAGAUCGGAAGAGCACACGU | 19 ± 7 nM
target 1 MT 5'PFS CAG 3'PFS UCG (mixed) RNA 1: CACCCGUGCAAAAAUGCAGGGGUCUAAAACUGAGCGGAUAACCUCUCUAUGG RNA 2: GGGAAUGGAUCCACAUCUACGAAUUCCAGCCAUAGAGAGGUUAUCCGCUCAUCGAGAUCGGAAGAGCACACGU | 9 ± 1.75 nM
target 1 MT 5'PFS CAG 3'PFS UCC (mixed) RNA 1: CACCCGUGCAAAAAUGCAGGGGUCUAAAACUGAGCGGAUAACCUCUCUAUGG RNA 2: GGGAAUGGAUCCACAUCUACGAAUUCCAGCCAUAGAGAGGUUAUCCGCUCAUCCAGAUCGGAAGAGCACACGU | 11.9 ± 5.25 nM
target 1 MT 5'PFS GAG 3'PFS CUG (mixed) RNA 1: CACCCGUGCAAAAAUGCAGGGGUCUAAAACUGAGCGGAUAACCUCUCUAUGG RNA 2: GGGAAUGGAUCCACAUCUACGAAUUCGAGCCAUAGAGAGGUUAUCCGCUCACUGAGAUCGGAAGAGCACACGU | ~23.5 nM
target 1 MT 5'PFS GAG 3'PFS CUA (mixed) RNA 1: CACCCGUGCAAAAAUGCAGGGGUCUAAAACUGAGCGGAUAACCUCUCUAUGG RNA 2: GGGAAUGGAUCCACAUCUACGAAUUCGAGCCAUAGAGAGGUUAUCCGCUCACUAAGAUCGGAAGAGCACACGU | 40 ± 15 nM
target 1 MT 5'PFS GAG 3'PFS UUU (mixed) RNA 1: CACCCGUGCAAAAAUGCAGGGGUCUAAAACUGAGCGGAUAACCUCUCUAUGG RNA 2: GGGAAUGGAUCCACAUCUACGAAUUCGAGCCAUAGAGAGGUUAUCCGCUCAUUUAGAUCGGAAGAGCACACGU | 23 ± 5.5 nM
target 1 MT 5'PFS GCA 3'PFS CGG (mixed) RNA 1: CACCCGUGCAAAAAUGCAGGGGUCUAAAACUGAGCGGAUAACCUCUCUAUGG RNA 2: GGGAAUGGAUCCACAUCUACGAAUUCGCACCAUAGAGAGGUUAUCCGCUCACGGAGAUCGGAAGAGCACACGU | 25 ± 6.5 nM
target 1 MT 5'PFS GAG 3'PFS UUG (mixed) RNA 1: CACCCGUGCAAAAAUGCAGGGGUCUAAAACUGAGCGGAUAACCUCUCUAUGG RNA 2: GGGAAUGGAUCCACAUCUACGAAUUCGAGCCAUAGAGAGGUUAUCCGCUCAUUGAGAUCGGAAGAGCACACGU | 9.9 ± 1.85 nM
target 1 insG 3' of 14 (mixed) RNA 1: CACCCGUGCAAAAAUGCAGGGGUCUAAAACUGAGCGGAUAACCUCUCUAUGG RNA 2: GGGAAUGGAUCCACAUCUACGAAUUCGUACCAUAGAGAGGGUUAUCCGCUCACCGAGAUCGGAAGAGCACACGU | 9.4 ± 0.33 nM
